We go through 4 molecules from patent US20240279310A1.

Read-outs that look alike come from different tables or passages of the source.

What all share (assay): cell-based or functional assay
The target of assay [1] is APRIL+BAFF (15 nM APRIL+10 nM BAFF) in combination.
For assay [2] the target is unchanged. This is another data set of the same source.
Assay [3] concerns the target recombinant human APRIL (Tonbo Biosciences) (human) (UniProt O75888).

Chain of recombinant human APRIL (Tonbo Biosciences) (human) (O75888 105-250 limits assumed): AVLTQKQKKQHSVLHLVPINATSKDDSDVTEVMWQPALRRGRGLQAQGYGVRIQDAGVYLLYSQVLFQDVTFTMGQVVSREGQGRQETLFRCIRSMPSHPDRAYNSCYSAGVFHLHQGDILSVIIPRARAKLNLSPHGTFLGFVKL

B1: belimumab, anti-BAFF monoclonal antibody (antibody, INN chains, looked up, V domains shown)
VH: QVQLQQSGAEVKKPGSSVRVSCKASGGTFNNNAINWVRQAPGQGLEWMGGIIPMFGTAKYSQNFQGRVAITADESTGTASMELSSLRSEDTAVYYCARSRDLLLFPHHALSPWGRGTMVTVSS
VL: SSELTQDPAVSVALGQTVRVTCQGDSLRSYYASWYQQKPGQAPVLVIYGKNNRPSGIPDRFSGSSSGNTASLTITGAQAEDEADYYCSSRDSSGNHWVFGGGTELTVLG
Regarding B1, in assay [1], the IC50 (pM) BAFF + APRIL was above 100000 pM.

B2: 26 TACI CRD2-Fc (TACI vTD SEQ ID NO:26, K77E/F78Y/Y102D; Fc fusion SEQ ID NO: 167) (Fc fusion)
chain: SLSCRKEQGEYYDHLLRDCISCASICGQHPKQCADFCENKLRSGSGGGGSEPKSSDKTHTCPPCPAPEAEGAPSVFLFPPKPKDTLMISRTPEVTCVVVDVSHEDPEVKFNWYVDGVEVHNAKTKPREEQYNSTYRVVSVLTVLHQDWLNGKEYKCKVSNKALPAPIEKTISKAKGQPREPQVYTLPPSRDELTKNQVSLTCLVKGFYPSDIAVEWESNGQPENNYKTTPPVLDSDGSFFLYSKLTVDKSRWQQGNVFSCSVMHEALHNHYTQKSLSLSPG
Turning to B2, the IC50 (pM) BAFF + APRIL in assay [2] turned out to be 1390 pM.

B3: atacicept (WT TACI-Fc sequences corresponding to atacicept, containing WT TACI 30-110; SEQ ID NO:132) (Fc fusion)
chain: AMRSCPEEQYWDPLLGTCMSCKTICNHQSQRTCAAFCRSLSCRKEQGKFYDHLLRDCISCASICGQHPKQCAYFCENKLRSEPKSSDKTHTCPPCPAPEAEGAPSVFLFPPKPKDTLMISRTPEVTCVVVDVSHEDPEVKFNWYVDGVEVHNAKTKPREEQYNSTYRVVSVLTVLHQDWLNGKEYKCKVSNKALPSSIEKTISKAKGQPREPQVYTLPPSRDELTKNQVSLTCLVKGFYPSDIAVEWESNGQPENNYKTTPPVLDSDGSFFLYSKLTVDKSRWQQGNVFSCSVMHEALHNHYTQKSLSLSPGK
As for B3, the IC50 (pM) BAFF + APRIL in assay [2] amounted to 7720 pM.

B4: anti-APRIL mAb BION-1301 (antibody, INN chains, looked up, V domains shown)
VH: QVQLVQSGAEVKKPGASVKVSCKASGYTFTDYTIHWVRQATGQGLEWMGWIYPLRGSINYAQKFQGRVTMTADKSISTVYMELSSLRSEDTAVYFCARHGAYYSNAFDYWGQGTLVTVSS
VL: EIVMTQSPATLSVSPGERATLSCRASESVDNDGIRFLHWYQQKPGQAPRLLIYRASTRATGIPARFSGSGSRTEFTLTISSLQSEDFAVYYCQQSNKDPYTFGGGTKVEIK
As to B4, in assay [1], the IC50 (pM) BAFF + APRIL was above 100000 pM. The IC50 (pM) APRIL in assay [3] was 4900 pM.
